Laboratory results as given in patent US20090099029A1, “Methods and substrates for conducting assays” (Invitrogen Corporation, priority 2005, published 2009).

B1: FGFR4 (protein)
chain: RGQALHGRHPRPPATVQKLSRFPLARQFSLESGSSGKSSSSLVRGVRLSSSGPALLAGLVSLDLPLDPLWEFPRDRLVLGKPLGEGCFGQVVRAEAFGMDPARPDQASTVAVKMLKDNASDKDLADLVSEMEVMKLIGRHKNIINLLGVCTQEGPLYVIVECAAKGNLREFLRARRPPGPDLSPDGPRSSEGPLSFPVLVSCAYQVARGMQYLESRKCIHRDLAARNVLVTEDNVMKIADFGLARGVHHIDYYKKTSNGRLPVKWMAPEALFDRVYTHQSDVWSFGILLWEIFTLGGSPYPGIPVEELFSLLREGHRMDRPPHCPPELYGLMRECWHAAPSQRPTFKQLVEALDKVLLAVSEEYLDLRLTFGPYSPSGGDASSTCSSSDSVFSHDPLPLGSSSFPFGSGVQT
modifications: left off: small tags and cut ends
B2: FGFR3 (protein)
chain: RLRSPPKKGLGSPTVHKISRFPLKRQVSLESNASMSSNTPLVRIARLSSGEGPTLANVSELELPADPKWELSRARLTLGKPLGEGCFGQVVMAEAIGIDKDRAAKPVTVAVKMLKDDATDKDLSDLVSEMEMMKMIGKHKNIINLLGACTQGGPLYVLVEYAAKGNLREFLRARRPPGLDYSFDTCKPPEEQLTFKDLVSCAYQVARGMEYLASQKCIHRDLAARNVLVTEDNVMKIADFGLARDVHNLDYYKKTTNGRLPVKWMAPEALFDRVYTHQSDVWSFGVLLWEIFTLGGSPYPGIPVEELFKLLKEGHRMDKPANCTHDLYMIMRECWHAAPSQRPTFKQLVEDLDRVLTVTSTDEYLDLSAPFEQYSPGGQDTPSSSSSGDDSVFAHDLLPPAPPSSGGSRT
modifications: left off: small tags and cut ends
B3: TAOK3(JIK) (protein)
chain: MRKGVLKDPEIADLFYKDDPEELFIGLHEIGHGSFGAVYFATNAHTSEVVAIKKMSYSGKQTHEKWQDILKEVKFLRQLKHPNTIEYKGCYLKEHTAWLVMEYCLGSASDLLEVHKKPLQEVEIAAITHGALHGLAYLHSHALIHRDIKAGNILLTEPGQVKLADFGSASMASPANSFVGTPYWMAPEVILAMDEGQYDGKVDIWSLGITCIELAERKPPLFNMNAMSALYHIAQNDSPTLQSNEWTDSFRRFVDYCLQKIPQERPTSAELLRHDFVRRDRPLRVLIDLIQRTKDAVRELDNLQYRKMKKILFQETRNGPLNESQEDEEDSEHGTSLNREMDSLGSNHSIPSMSVSTGSQSSSVNSMQEVMDESSSELVMMHDDESTINSSSSVVHKKDHVFIRDEAGHGDPRPEPRPTQSVQSQALHYRNRERFATIKSASLVTRQIHEHEQENELREQMSGYKRMRRQHQKQLIALENKLKAEMDEHRLKLQKEVETHANNSSIELEKLAKKQVAIIEKEAKVAAADEKKFQQQILAQQKKDLTTFLESQKKQYKICKEKIKEEMNEDHSTPKKEKQERISKHKENLQHTQAEEEAHLLTQQRLYYDKNCRFFKRKIMIKRHEVEQQNIREELNKKRTQKEMEHAMLIRHDESTRELEYRQLHTLQKLRMDLIRLQHQTELENQLEYNKRRERELHRKHVMELRQQPKNLKAMEMQIKKQFQDTCKVQTKQYKALKNHQLEVTPKNEHKTILKTLKDEQTRKLAILAEQYEQSINEMMASQALRLDEAQEAECQALRLQLQQEMELLNAYQSKIKMQTEAQHERELQKLEQRVSLRRAHLEQKIEEELAALQKERSERIKNLLERQEREIETFDMESLRMGFGNLVTLDFPKEDYR
modifications: left off: a dimerising Fc or GST
B4: KIT (protein)
chain: TYKYLQKPMYEVQWKVVEEINGNNYVYIDPTQLPYDHKWEFPRNRLSFGKTLGAGAFGKVVEATAYGLIKSDAAMTVAVKMLKPSAHLTEREALMSELKVLSYLGNHMNIVNLLGACTIGGPTLVITEYCCYGDLLNFLRRKRDSFICSKQEDHAEAALYKNLLHSKESSCSDSTNEYMDMKPGVSYVVPTKADKRRSVRIGSYIERDVTPAIMEDDELALDLEDLLSFSYQVAKGMAFLASKNCIHRDLAARNILLTHGRITKICDFGLARDIKNDSNYVVKGNARLPVKWMAPESIFNCVYTFESDVWSYGIFLWELFSLGSSPYPGMPVDSKFYKMIKEGFRMLSPEHAPAEMYDIMKTCWDADPLKRPTFKQIVQLIEKQISESTNHIYSNLANCSPNRQKPVVDHSVRINSVGSTASSSQPLLVHDDV
modifications: left off: small tags and cut ends
B5: FLT1(VEGFR1) (protein)
chain: RKMKRSSSEIKTDYLSIIMDPDEVPLDEQCERLPYDASKWEFARERLKLGKSLGRGAFGKVVQASAFGIKKSPTCRTVAVKMLKEGATASEYKALMTELKILTHIGHHLNVVNLLGACTKQGGPLMVIVEYCKYGNLSNYLKSKRDLFFLNKDAALHMEPKKEKMEPGLEQGKKPRLDSVTSSESFASSGFQEDKSLSDVEEEEDSDGFYKEPITMEDLISYSFQVARGMEFLSSRKCIHRDLAARNILLSENNVVKICDFGLARDIYKNPDYVRKGDTRLPLKWMAPESIFDKIYSTKSDVWSYGVLLWEIFSLGGSPYPGVQMDEDFCSRLREGMRMRAPEYSTPEIYQIMLDCWHRDPKERPRFAELVEKLGDLLQANVQQDGKDYIPINAILTGNSGFTYSTPAFSEDFFKESISAPKFNSGSSDDVRYVNAFKFMSLERIKTFEELLPNATSMFDDYQGDSSTLLASPMLKRFTWTDSKPKASLKIDLRVTSKSKESGLSDVSRPSFCHSSCGHVSEGKRRFTYDHAELERKIACCSPPPDYNSVVLYSTPPI
modifications: left off: a dimerising Fc or GST
B6: FGFR2 (protein)
chain: RMKNTTKKPDFSSQPAVHKLTKRIPLRRQVTVSAESSSSMNSNTPLVRITTRLSSTADTPMLAGVSEYELPEDPKWEFPRDKLTLGKPLGEGCFGQVVMAEAVGIDKDKPKEAVTVAVKMLKDDATEKDLSDLVSEMEMMKMIGKHKNIINLLGACTQDGPLYVIVEYASKGNLREYLRARRPPGMEYSYDINRVPEEQMTFKDLVSCTYQLARGMEYLASQKCIHRDLAARNVLVTENNVMKIADFGLARDINNIDYYKKTTNGRLPVKWMAPEALFDRVYTHQSDVWSFGVLMWEIFTLGGSPYPGIPVEELFKLLKEGHRMDKPANCTNELYMMMRDCWHAVPSQRPTFKQLVEDLDRILTLTTNEEYLDLSQPLEQYSPSYPDTRSSCSSGDDSVFSPDPMPYEPCLPQYPHINGSVKT
modifications: left off: small tags and cut ends
B7: INSRR (protein)
chain: YGKKRNRTLYASVNPEYFSASDMYVPDEWEVPREQISIIRELGQGSFGMVYEGLARGLEAGEESTPVALKTVNELASPRECIEFLKEASVMKAFKCHHVVRLLGVVSQGQPTLVIMELMTRGDLKSHLRSLRPEAENNPGLPQPALGEMIQMAGEIADGMAYLAANKFVHRDLAARNCMVSQDFTVKIGDFGMTRDVYETDYYRKGGKGLLPVRWMAPESLKDGIFTTHSDVWSFGVVLWEIVTLAEQPYQGLSNEQVLKFVMDGGVLEELEGCPLQLQELMSRCWQPNPRLRPSFTHILDSIQEELRPSFRLLSFYYSPECRGARGSLPTTDAEPDSSPTPRDCSPQNGGPGH
modifications: left off: a dimerising Fc or GST
B8: TTK (protein)
chain: MESEDLSGRELTIDSIMNKVRDIKNKFKNEDLTDELSLNKISADTTDNSGTVNQIMMMANNPEDWLSLLLKLEKNSVPLSDALLNKLIGRYSQAIEALPPDKYGQNESFARIQVRFAELKAIQEPDDARDYFQMARANCKKFAFVHISFAQFELSQGNVKKSKQLLQKAVERGAVPLEMLEIALRNLNLQKKQLLSEEEKKNLSASTVLTAQESFSGSLGHLQNRNNSCDSRGQTTKARFLYGENMPPQDAEIGYRNSLRQTNKTKQSCPFGRVPVNLLNSPDCDVKTDDSVVPCFMKRQTSRSECRDLVVPGSKPSGNDSCELRNLKSVQNSHFKEPLVSDEKSSELIITDSITLKNKTESSLLAKLEETKEYQEPEVPESNQKQWQSKRKSECINQNPAASSNHWQIPELARKVNTEQKHTTFEQPVFSVSKQSPPISTSKWFDPKSICKTPSSNTLDDYMSCFRTPVVKNDFPPACQLSTPYGQPACFQQQQHQILATPLQNLQVLASSSANECISVKGRIYSILKQIGSGGSSKVFQVLNEKKQIYAIKYVNLEEADNQTLDSYRNEIAYLNKLQQHSDKIIRLYDYEITDQYIYMVMECGNIDLNSWLKKKKSIDPWERKSYWKNMLEAVHTIHQHGIVHSDLKPANFLIVDGMLKLIDFGIANQMQPDTTSVVKDSQVGTVNYMPPEAIKDMSSSRENGKSKSKISPKSDVWSLGCILYYMTYGKTPFQQIINQISKLHAIIDPNHEIEFPDIPEKDLQDVLKCCLKRDPKQRISIPELLAHPYVQIQTHPVNQMAKGTTEEMKYVLGQLVGLNSPNSILKAAKTLYEHYSGGESHNSSSSKTFEKKRGKK
modifications: left off: a dimerising Fc or GST
B9: IGF1R (protein)
chain: RKRNNSRLGNGVLYASVNPEYFSAADVYVPDEWEVAREKITMSRELGQGSFGMVYEGVAKGVVKDEPETRVAIKTVNEAASMRERIEFLNEASVMKEFNCHHVVRLLGVVSQGQPTLVIMELMTRGDLKSYLRSLRPEMENNPVLAPPSLSKMIQMAGEIADGMAYLNANKFVHRDLAARNCMVAEDFTVKIGDFGMTRDIYETDYYRKGGKGLLPVRWMSPESLKDGVFTTYSDVWSFGVVLWEIATLAEQPYQGLSNEQVLRFVMEGGLLDKPDNCPDMLFELMRMCWQYNPKMRPSFLEIISSIKEEMEPGFREVSFYYSEENKLPEPEELDLEPENMESVPLDPSASSSSLPLPDRHSGHKAENGPGPGVLVLRASFDERQPYAHMNGGRKNERALPLPQSSTC
modifications: left off: small tags and cut ends
B10: FLT3 (protein)
chain: HKYKKQFRYESQLQMVQVTGSSDNEYFYVDFREYEYDLKWEFPRENLEFGKVLGSGAFGKVMNATAYGISKTGVSIQVAVKMLKEKADSSEREALMSELKMMTQLGSHENIVNLLGACTLSGPIYLIFEYCCYGDLLNYLRSKREKFHRTWTEIFKEHNFSFYPTFQSHPNSSMPGSREVQIHPDSDQISGLHGNSFHSEDEIEYENQKRLEEEEDLNVLTFEDLLCFAYQVAKGMEFLEFKSCVHRDLAARNVLVTHGKVVKICDFGLARDIMSDSNYVVRGNARLPVKWMAPESLFEGIYTIKSDVWSYGILLWEIFSLGVNPYPGIPVDANFYKLIQNGFKMDQPFYATEEIYIIMQSCWAFDSRKRPSFPNLTSFLGCQLADAEEAMYQNVDGRVSECPHTYQNRRPFSREMDLGLLSPQAQVEDS
modifications: left off: small tags and cut ends

System: kinases of Table 6 on Myelin Basic Protein (MBP)
Test: Kinase assay using MBP substrate, ProQ Diamond stain (Table 6)
Format: biochemical
Conditions: kinase printed on MBP-coated slide; 20 uM ATP, 30° C.; ProQ Diamond Microarray Stain; graded Strong/Weak/Negative
Outline: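 Bovine dephosphorylated MBP coated on aldehyde- or epoxy-glass slides, kinases printed on top; reaction buffer pH 7.5 with 4 mM MgCl2, 20 uM ATP, 5% DMSO, ± inhibitor, at 30° C. Phosphorylation detected by ProQ Diamond stain, 30 min in dark.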

Molecule	MBP Kinase Activity
B1	Strong
B2	Strong
B3	Strong
B4	Negative
B5	Strong
B6	Strong
B7	Negative
B8	Negative
B9	Strong
B10	Strong
